Experiment [1] concerns the target T1, purified inactive Akt1 (untagged) (UniProt P31749 1-480).
T1 construct: source: bought: Merck Millipore
Put plainly: pull-down; FLAG pull-down: FLAG column saturated with FKBP51_FLAG, 20 µM inactive Akt, NETN buffer, 4 °C overnight, eluted with FLAG peptide; Western blot. To be noted: both partners purified.

Experiment [2] addresses T2, GST_Akt1^S473D (UniProt P31749 1-480, S473D).
T2 construct: Akt1 with the phosphomimetic S473D, called constitutively active; also called purified GST-tagged Akt1S473D; GST-tagged active Akt
In words: pull-down; GST pull-down: 15 µM FKBPs or Cyp40 with 22 µM GST_Akt1 S473D or GST_Akt1 S473D_ΔPH on glutathione resin, 3 h, 4 °C, NETN buffer (20 mM Tris-HCl pH 8.0, 100 mM NaCl, 1 mM EDTA, 0.5% igepal); AMP-PNP (5 mM), rapamycin (1 µM) or DMSO where indicated; Western blot. To be noted: both partners purified.

T2 sequence (P31749 whole entry S473D): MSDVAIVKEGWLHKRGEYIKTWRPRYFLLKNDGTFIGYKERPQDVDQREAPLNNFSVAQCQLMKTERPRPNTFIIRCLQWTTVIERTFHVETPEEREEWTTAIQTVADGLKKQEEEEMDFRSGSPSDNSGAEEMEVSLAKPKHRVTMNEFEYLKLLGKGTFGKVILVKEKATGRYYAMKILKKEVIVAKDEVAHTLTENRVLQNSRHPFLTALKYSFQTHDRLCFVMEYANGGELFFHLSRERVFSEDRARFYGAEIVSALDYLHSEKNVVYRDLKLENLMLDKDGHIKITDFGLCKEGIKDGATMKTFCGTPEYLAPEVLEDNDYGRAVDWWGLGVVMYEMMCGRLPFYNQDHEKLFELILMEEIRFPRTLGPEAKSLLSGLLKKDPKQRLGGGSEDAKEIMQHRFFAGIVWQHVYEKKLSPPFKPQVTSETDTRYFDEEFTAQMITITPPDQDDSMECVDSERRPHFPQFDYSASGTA
T1 sequence (P31749 whole entry): as the sequence (P31749 whole entry S473D) above, with D473S counted along it

B1: purified FLAG-tagged FKBP51 (natural protein, UniProt Q13451 1-457, looked up)
chain: MTTDEGAKNNEESPTATVAEQGEDITSKKDRGVLKIVKRVGNGEETPMIGDKVYVHYKGKLSNGKKFDSSHDRNEPFVFSLGKGQVIKAWDIGVATMKKGEICHLLCKPEYAYGSAGSLPKIPSNATLFFEIELLDFKGEDLFEDGGIIRRTKRKGEGYSNPNEGATVEIHLEGRCGGRMFDCRDVAFTVGEGEDHDIPIGIDKALEKMQREEQCILYLGPRYGFGEAGKPKFGIEPNAELIYEVTLKSFEKAKESWEMDTKEKLEQAAIVKEKGTVYFKGGKYMQAVIQYGKIVSWLEMEYGLSEKESKASESFLLAAFLNLAMCYLKLREYTKAVECCDKALGLDSANEKGLYRRGEAQLLMNEFESAKGDFEKVLEVNPQNKAARLQISMCQKKAKEHNERDRRIYANMFKKFAEQDAKEEANKAMGKKTSEGVTNEKGTDSQAMEEEKPEGHV
notes: FKBP51, His-tagged full length; also called FKBP51_FLAG; purified FKBP51
Take B1: the binding result in experiment [1] and in experiment [2] was “binds” throughout.

B2: purified FKBP51 ΔFK1_FLAG (domain or fragment, UniProt Q13451 143-457, looked up)
chain: FEDGGIIRRTKRKGEGYSNPNEGATVEIHLEGRCGGRMFDCRDVAFTVGEGEDHDIPIGIDKALEKMQREEQCILYLGPRYGFGEAGKPKFGIEPNAELIYEVTLKSFEKAKESWEMDTKEKLEQAAIVKEKGTVYFKGGKYMQAVIQYGKIVSWLEMEYGLSEKESKASESFLLAAFLNLAMCYLKLREYTKAVECCDKALGLDSANEKGLYRRGEAQLLMNEFESAKGDFEKVLEVNPQNKAARLQISMCQKKAKEHNERDRRIYANMFKKFAEQDAKEEANKAMGKKTSEGVTNEKGTDSQAMEEEKPEGHV
notes: FKBP51 without the FK1 domain; It was the only construct not checked by active site titration; also called FKBP51 ΔFK1 construct; pProExHta_ΔFK1; source: purified
For the molecule B2, the binding result in experiment [2] was “binds”.

B3: purified FKBP52 (natural protein, UniProt Q02790 1-459, looked up)
chain: MTAEEMKATESGAQSAPLPMEGVDISPKQDEGVLKVIKREGTGTEMPMIGDRVFVHYTGWLLDGTKFDSSLDRKDKFSFDLGKGEVIKAWDIAIATMKVGEVCHITCKPEYAYGSAGSPPKIPPNATLVFEVELFEFKGEDLTEEEDGGIIRRIQTRGEGYAKPNEGAIVEVALEGYYKDKLFDQRELRFEIGEGENLDLPYGLERAIQRMEKGEHSIVYLKPSYAFGSVGKEKFQIPPNAELKYELHLKSFEKAKESWEMNSEEKLEQSTIVKERGTVYFKEGKYKQALLQYKKIVSWLEYESSFSNEEAQKAQALRLASHLNLAMCHLKLQAFSAAIESCNKALELDSNNEKGLFRRGEAHLAVNDFELARADFQKVLQLYPNNKAAKTQLAVCQQRIRRQLAREKKLYANMFERLAEEENKAKAEASSGDHPTDTEMKEEQKSNTAGSQSQVETEA
notes: FKBP52, His-tagged full length
B3: the binding result in experiment [2] was “binds”.

B4: purified isolated FK506-binding domain of FKBP51 (FKBP51FK1) (domain or fragment, UniProt Q13451 1-140, looked up)
chain: MTTDEGAKNNEESPTATVAEQGEDITSKKDRGVLKIVKRVGNGEETPMIGDKVYVHYKGKLSNGKKFDSSHDRNEPFVFSLGKGQVIKAWDIGVATMKKGEICHLLCKPEYAYGSAGSLPKIPSNATLFFEIELLDFKGE
notes: detection was with an antibody against the FK1 domain; also called FLAG-tagged FKBP51FK1; source: purified
On to B4, for which the binding result in experiment [2] is “binds”.

For the origin of these results see paper PMC3585324, “InterAKTions with FKBPs - Mutational and Pharmacological Exploration” (PLoS ONE, 2013).
